# Results as given in patent US20230071609A1 (Genentech, published 2023).
# T1: APOL1-G2 (deletion of N388 and Y389) (human, UniProt O14791 29-398)
# T1 construct: expressed in CHO cells (flow cytometry, lysates), COS cells and podocytes; also called iAPOL1-G2; APOL-G2
# T1 sequence: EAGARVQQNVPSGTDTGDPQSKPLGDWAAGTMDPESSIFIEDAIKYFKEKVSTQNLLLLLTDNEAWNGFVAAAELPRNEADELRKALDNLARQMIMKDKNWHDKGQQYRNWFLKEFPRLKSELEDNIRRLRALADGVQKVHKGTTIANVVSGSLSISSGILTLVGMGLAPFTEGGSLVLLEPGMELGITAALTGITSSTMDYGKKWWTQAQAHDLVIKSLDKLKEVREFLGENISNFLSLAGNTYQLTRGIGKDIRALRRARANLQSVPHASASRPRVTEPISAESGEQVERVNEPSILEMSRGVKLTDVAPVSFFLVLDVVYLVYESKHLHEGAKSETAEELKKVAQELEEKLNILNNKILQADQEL
# T2: APOL1 very C-terminal peptide aa 376-398 (human)
# T2 peptide: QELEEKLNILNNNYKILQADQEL
# T3: endogenous human APOL1 (wild-type immortalized podocytes; also JHH-1 cells, kidney and liver tissue) (human, UniProt O14791 28-398)
# T3 construct: whole, on cells; Cell or tissue and permeabilization are told under assay; also called podocyte APOL1; endogenous APOL1
# T3 sequence (looked up): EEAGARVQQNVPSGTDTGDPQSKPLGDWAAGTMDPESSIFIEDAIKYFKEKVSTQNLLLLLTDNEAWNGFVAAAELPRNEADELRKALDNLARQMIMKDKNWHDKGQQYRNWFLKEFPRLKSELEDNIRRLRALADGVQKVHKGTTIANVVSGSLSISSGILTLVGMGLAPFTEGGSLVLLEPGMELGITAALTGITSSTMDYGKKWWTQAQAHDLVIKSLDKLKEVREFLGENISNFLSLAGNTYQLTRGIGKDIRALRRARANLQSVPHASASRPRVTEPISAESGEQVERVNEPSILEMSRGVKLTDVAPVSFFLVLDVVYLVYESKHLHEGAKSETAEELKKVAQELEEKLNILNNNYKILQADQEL
# T4: circulating APOL1 in normal human serum (human, UniProt O14791 28-398)
# T4 construct: mature; Serum of healthy volunteers; lipoprotein-associated; also called serum APOL1; HDL APOL1
# T4 sequence (looked up): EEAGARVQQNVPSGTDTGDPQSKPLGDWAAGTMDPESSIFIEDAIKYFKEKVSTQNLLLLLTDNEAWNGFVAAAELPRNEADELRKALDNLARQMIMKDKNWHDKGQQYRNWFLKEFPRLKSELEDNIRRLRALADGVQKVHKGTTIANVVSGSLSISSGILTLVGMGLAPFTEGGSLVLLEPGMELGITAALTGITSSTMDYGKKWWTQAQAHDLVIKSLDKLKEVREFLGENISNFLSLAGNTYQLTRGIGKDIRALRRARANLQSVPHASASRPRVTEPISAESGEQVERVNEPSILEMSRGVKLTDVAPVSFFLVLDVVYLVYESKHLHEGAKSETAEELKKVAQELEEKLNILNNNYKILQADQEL
# T5: APOL1 peptide aa 364-385 (human)
# T5 peptide: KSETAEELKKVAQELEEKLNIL
# B1: antibody 4.11H11 (antibody, V domains shown)
# VH: EVQVQQSGPELVKPGASMKISCKASGYSFIVYTMNWVKQSHGKNLEWIGLINPYNGGTIYNRKFKGKATLTVDKSSSTAYLELLSLTSEDSAVYYCARGALYRYEGAMDYWGQGTSVIVSS
# VL: QIVLSQFPAILSASPGEKVTMTCRASSSVIYVHWYQQKPGSSPKPWIYATSNLASGVPARFSGSGSGTSHSLTISRLEAEDTATYYCQQWSSNPLTFGAGTKLEIKR
# notes: Mouse mAb, cloned as murine IgG2a LALAPG
# B2: antibody 3.3B6 (antibody, V domains shown)
# VH: QVQLQQSGAELARPGASVKLSCKASGYTFTSHWMQWLKQRPGQGLEWIGAIYPGDGDTKFTQKFKDKATLTADKSSTTAYMQLSSLASEDSAVYYCARENLYGYYFDYWGQGTTLTVSS
# VL: QAVVTQESALTTSPGETVTLTCRSSTGAVTSGNFANWVQEKPDHLFTGLIGGADNRAPGVPARFSGSLIGDKAALIITGAQTEDEAIYFCALWYSDHWVFGGGTKLTVLG
# notes: as for B1
# B3: antibody 4.11A10 (antibody, V domains shown)
# VH: EVQLQQSGPELVKTGASVKISCKASGYSFTGYFMHWVKQSHGKSLEWIGYISCYNGVSVYNQRFKGKATFTIDTSSSTAYMQFNSLTSEDSAVYYCARDVLRYPRYAVDYWGQGTSVTVSS
# VL: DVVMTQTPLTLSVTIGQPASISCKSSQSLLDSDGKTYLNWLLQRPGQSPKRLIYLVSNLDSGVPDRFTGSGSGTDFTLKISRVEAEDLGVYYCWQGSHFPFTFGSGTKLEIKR
# notes: as for B1
# B4: antibody 4.29C4 (antibody, V domains shown)
# VH: QVQLQQPGAELVRPGASVKLSCKASGYSFANYWMNWVKQRPGQGLEWIGMIHPSDSESRLSQRFKDKATLTVDKSSSTAYMQLNSPTSEDSAVYYCARLDYWGQGTSVTVSS
# VL: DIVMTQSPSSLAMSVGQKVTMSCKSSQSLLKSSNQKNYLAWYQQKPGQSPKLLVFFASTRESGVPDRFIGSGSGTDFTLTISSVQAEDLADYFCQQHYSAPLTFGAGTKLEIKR
# notes: as for B1
# Assays:
# [1] = target: T1, APOL1-G2 (deletion of N388 and Y389); assay: flow cytometry, live CHO cells expressing full length native iAPOL1-G2
# [2] = target: T2, APOL1 very C-terminal peptide aa 376-398; assay: overlapping ~20-mer peptides (SPR, western blot); antibody named in paragraph 192
# Method: (§1) Following three TBST washes, anti-mouse (GE Healthcare NA931V, 1:3000) or anti-rabbit HRP (Jackson 711-036-152, 1:8000) was added as secondary antibody. After 1 h, membranes were washed and protein detected using ECL prime (Amersham RPN2232) exposed to MR film (Kodak). Anti-actin HRP-conjugated antibody (clone 13E5, Cell Signaling Technologies 5125S at 1:5000) or calnexin (Abcam Ab22595 at 1:1000) was used as a loading control. For peptide mapping, 2 μl of 1 mM peptides in DMSO were boiled in 5× sample buffer and loaded on 10% Tris-Glycine gel and run using MES buffer. Cell pellets of Sf9 lysates were lysed in native RIPA (NP-40) lysis buffer and run on 10% Tris-Glycine gels.
# A 96×96 array-based SPR imaging system (Carterra USA) was used for epitope mapping of anti-ApoL1 monoclonal antibodies. Briefly, purified monoclonal hybridoma antibodies were diluted at 10 μg/ml in 10 mM sodium acetate buffer pH 4.5. Using amine coupling, antibodies were directly immobilized onto a SPR sensorprism CMD 200M chip (XanTec Bioanalytics, Germany) using a Continuous Flow Microspotter (Carterra, USA) to create an array of antibodies. After coupling, the antibodies were blocked with ethanolamine, and primed with running buffer (10 mM HEPES, pH 7.4, 150 mM NaCl, 3 mM EDTA, and 0.005% Tween 20). Epitope mapping was performed by flowing 100 nM of different peptides of APOL1 across the immobilized anti-APOL1 antibodies on the biosensor chip at 25° C. in a running buffer of 10 mM HEPES, pH 7.4, 150 mM NaCl, 3 mM EDTA, and 0.005% Tween 20. After each flow through of the APOL1 peptide, the chip surface was regenerated using 10 mM glycine, pH 2.0.
# [3] = target: T3, endogenous human APOL1 (wild-type …); assay: summary of the Examples: podocyte flow cytometry
# Method: (§2) Cells were harvested with 5 mM EDTA in PBS, washed once with growth media and twice with PBS. Approximately 0.5×10⁶/m1 of cells resuspended in PBS were incubated with anti-APOL1 antibodies for 1 h on ice. Following two PBS washes, 2 μg/ml of Alexa488 anti-mouse or anti-rabbit (Invitrogen A11029 and A21206, respectively) was used for 1 h on ice for detection. Cells were washed twice in PBS and resuspended in PBS with 1 μg/ml propidium iodide. Signals were read in a FACSCalibur3 (Becton Dickinson), with the exception of FIG. 8A and FIG. 14, which used a FACSCelesta, and data was analyzed using FlowJo v8.4.5. Mean fluorescence intensities were plotted in PRISM v7 after subtraction of secondary antibody alone background. For low pH experiments, cells were incubated with the antibodies in the presence of PBS pH 7.0 or PBS pH 5.5 for an hour on ice and detected with secondary antibodies at neutral pH.
# [4] = target: T4, circulating APOL1 in normal human serum; assay: summary of the Examples: trypanolysis blocking as proxy for serum APOL1
# Method: The trypanolysis assay used herein to text specificity of antibodies for serum APOL1 is as follows. Trypanosoma brucei brucei were obtained from ATCC and cultured in HMI-9 media containing IMDM (Genentech), heat-inactivated (56° C. for 30 min) FBS (Seradigm IXL9/06807/GEN), 1% serum plus (Sigma 14008C), HMI-9 (Genentech) and 1% hypoxanthine (Genentech). Trypanosome lysis was performed by treating 1×10⁵ Trypanosomes with serial dilutions of NHS or recombinant APOL1 for 16 h in a total of 100 μl. Live cell read out was done by the Alamar Blue assay as per the manufacturer's protocol, (Thermo Fisher, DAL1100). Briefly 10 μl of Alamar Blue was added to each well, incubated at 37° C. for 4 h. Red fluorescence, indicating live trypanosomes, was measured on a SpectraMax® fluorimeter powered by SoftMAX® PRO with excitation at 530 nm and emission 590 nm. For the antibody blocking assay, 1% normal human serum was preincubated with 1-10 μg/ml of anti-APOL1 antibody or media at room temperature for 20 minutes followed by addition of trypanosomes. After 16 h, the Alamar Blue assay was performed as above and background values for media only were subtracted and % blocking calculated by normalizing to no antibody control.
# Trypanosoma brucei brucei were obtained under MTA from ATCC and cultured in HMI-9 media containing IMDM (Genentech), heat-inactivated (56° C. for 30 min) FBS (Seradigm IXL9/06807/GEN), 1% serum plus (Sigma 14008C), HMI-9 (Genentech) and 1% hypoxanthine (Genentech). Trypanosome lysis was performed by treating 1×10⁵ Trypanosomes with serial dilutions of NHS or recombinant APOL1 for 16 h in a total of 100 μl. Live cell read out was done by the Alamar Blue assay as per the manufacturer's protocol (30) (Thermo Fisher, DAL1100). Briefly 10 μl of Alamar Blue was added to each well, incubated at 37° C. for 4 h. Red fluorescence, indicating live trypanosomes, was measured on a SpectraMax fluorimeter powered by SoftMAX PRO with excitation at 530 nm and emission 590 nm. For the antibody blocking assay, 1% normal human serum was preincubated with 1-10 μg/ml of anti-APOL1 antibody or media at room temperature for 20 mins followed by addition of trypanosomes.
# [5] = target: T3, endogenous human APOL1 (wild-type …); assay: flow cytometry, live WT and iAPOL1-G0 podocytes
# Method: as §2
# More importantly, there were also differential APOL1 accessibilities between serum APOL1 and kidney disease-relevant podocytes (FIG. 18B). Some antibodies bound surface APOL1 in WT and iAPOL1 podocytes (FIG. 6A, 6B), but not circulating APOL1 (as judged by lack of trypanolytic blockade, FIG. 6C) and vice versa. […] Conversely, 3.3B6 and 4.17A5 were among the top trypanolytic blockers, but recognized the podocyte surface relatively weakly. […]
# APOL1 peptide aa 364-385 = target: T5, APOL1 peptide aa 364-385; assay: overlapping ~20-mer peptides (SPR, western blot)
# Method: as §1
# A 96×96 array-based SPR imaging system (Carterra USA) was used for epitope mapping of anti-ApoL1 monoclonal antibodies. Briefly, purified monoclonal hybridoma antibodies were diluted at 10 μg/ml in 10 mM sodium acetate buffer pH 4.5. Using amine coupling, antibodies were directly immobilized onto a SPR sensorprism CMD 200M chip (XanTec Bioanalytics, Germany) using a Continuous Flow Microspotter (Carterra, USA) to create an array of antibodies. After coupling, the antibodies were blocked with ethanolamine, and primed with running buffer (10 mM HEPES, pH 7.4, 150 mM NaCl, 3 mM EDTA, and 0.005% Tween 20). […]
Binder,binding result [1],binding result [2],binding result [3],binding result [4],binding result [5],binding result (APOL1 peptide aa 364-385)
B1,no binding (tested: 5 µg/ml),binds,binds,binds,–,–
B2,–,–,–,–,binds,–
B3,no binding (tested: 5 µg/ml),binds,binds,binds,–,–
B4,–,–,–,–,–,binds
